Consider 50 sequences from the supplement of paper PMC9112550, “Optimization of the antimicrobial peptide Bac7 by deep mutational scanning” (BMC Biology, 2022).
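Note: peptides expressed intracellularly from a pBAD plasmid library in pooled LB shake-flask culture, induced with 0.3% L-arabinose, DNA abundance read by NGS, three biological replicates, DESeq2 with apeglm shrinkage.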

For this data set, the system named is Escherichia coli TOP10. In words: shrunken log2 fold change of peptide-encoding DNA abundance (4.5 h post-induction vs induction); higher = less antimicrobial activity (less host growth inhibition). To be noted: time post-induction: 4.5 h; library: site-saturation at positions 5, 18, 19, 20.
Take RRIRGRPPRLPRPRPRPSAVPRP: the “shrunken log2 fold change” value was determined as 1.39.
Under RRIRWRPPRLPRPRPRPFVKPRP stands -0.753; under RRIRERPPRLPRPRPRPSYGPRP, -0.708.
Turning to RRIRQRPPRLPRPRPRPRHIPRP, the “shrunken log2 fold change” value is -0.319.
Under RRIRFRPPRLPRPRPRPVAKPRP stands -0.0163; under RRIRRRPPRLPRPRPRPHSFPRP, 0.199; under RRIRERPPRLPRPRPRPSHVPRP, -2.72.
Under RRIRERPPRLPRPRPRPGYAPRP stands -0.102; under RRIRDRPPRLPRPRPRPYLNPRP, -0.272.
To RRIRCRPPRLPRPRPRPFTCPRP belongs -0.223; to RRIRQRPPRLPRPRPRPIHNPRP, -0.464.
RRIRNRPPRLPRPRPRPTQGPRP: the “shrunken log2 fold change” value is 0.331.
To RRIRGRPPRLPRPRPRPRHLPRP belongs 0.221; to RRIRVRPPRLPRPRPRPCVRPRP, 0.0421.
To RRIRRRPPRLPRPRPRPRSVPRP belongs 0.234.
For RRIRGRPPRLPRPRPRPSLHPRP, the “shrunken log2 fold change” value worked out at 0.316.
To RRIRKRPPRLPRPRPRPTNVPRP belongs 0.221.
Under RRIRCRPPRLPRPRPRPTEAPRP stands 0.425; under RRIRTRPPRLPRPRPRPPLWPRP, 0.689; under RRIRPRPPRLPRPRPRPMNKPRP, -0.551.
Under RRIRQRPPRLPRPRPRPMTQPRP stands -0.0451; under RRIRLRPPRLPRPRPRPHWQPRP, 0.0281.
On to RRIRTRPPRLPRPRPRPTYIPRP, for which the “shrunken log2 fold change” value was -0.603.
To RRIRMRPPRLPRPRPRPQHDPRP belongs -0.202.
To RRIRARPPRLPRPRPRPLTGPRP belongs 0.172; to RRIRRRPPRLPRPRPRPWWGPRP, 0.288.
To RRIRWRPPRLPRPRPRPWTWPRP belongs 0.0111.
As for RRIRLRPPRLPRPRPRPTRTPRP, the “shrunken log2 fold change” value amounted to 0.243.
To RRIRRRPPRLPRPRPRPCANPRP belongs -0.0911; to RRIRIRPPRLPRPRPRPIMYPRP, -0.0494; to RRIRSRPPRLPRPRPRPFMFPRP, -0.156.
To RRIRPRPPRLPRPRPRPLTWPRP belongs 0.0214; to RRIRNRPPRLPRPRPRPVISPRP, 0.156.
Take RRIRNRPPRLPRPRPRPEQEPRP: the “shrunken log2 fold change” value came out at 0.0175.
Under RRIRCRPPRLPRPRPRPKVVPRP stands -0.0915; under RRIRVRPPRLPRPRPRPQCNPRP, -0.449; under RRIRIRPPRLPRPRPRPWWDPRP, -0.309.
To RRIRERPPRLPRPRPRPVTLPRP belongs -0.289; to RRIRRRPPRLPRPRPRPVPVPRP, 0.128; to RRIRHRPPRLPRPRPRPVITPRP, 0.0477.
Under RRIRTRPPRLPRPRPRPMNCPRP stands -0.0645; under RRIRVRPPRLPRPRPRPWFYPRP, -0.373; under RRIRARPPRLPRPRPRPQPYPRP, -0.3.
Turning to RRIRSRPPRLPRPRPRPYLGPRP, the “shrunken log2 fold change” value was -0.204.
On to RRIRHRPPRLPRPRPRPCFDPRP, for which the “shrunken log2 fold change” value was -0.00612.
To RRIRHRPPRLPRPRPRPTVRPRP belongs 0.165.
Under RRIRERPPRLPRPRPRPVQQPRP stands -0.168; under RRIRWRPPRLPRPRPRPLLRPRP, 0.325; under RRIRDRPPRLPRPRPRPWINPRP, 0.0363.
As for RRIRSRPPRLPRPRPRPFVDPRP, the “shrunken log2 fold change” value is -0.228.
